Data reported in article PMC546169.
Like-named read-outs stand apart in the source and are kept apart here.

T1: Sac7d M29F (Sulfolobus acidocaldarius, UniProt P13123 1-66, M29F)
T1 sequence: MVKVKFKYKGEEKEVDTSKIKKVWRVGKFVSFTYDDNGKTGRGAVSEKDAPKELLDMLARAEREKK

T2: Sac7d M29A (Sulfolobus acidocaldarius, UniProt P13123 1-66, M29A)
T2 sequence: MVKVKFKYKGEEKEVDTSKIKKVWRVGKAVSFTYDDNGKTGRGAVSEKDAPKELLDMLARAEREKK

T3: Sac7d V26A (Sulfolobus acidocaldarius, UniProt P13123 1-66, V26A)
T3 sequence: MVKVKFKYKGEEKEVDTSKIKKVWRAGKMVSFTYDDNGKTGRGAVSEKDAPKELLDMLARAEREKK

T4: Sac7d V26F/M29F (Sulfolobus acidocaldarius, UniProt P13123 1-66, V26F;M29F)
T4 sequence: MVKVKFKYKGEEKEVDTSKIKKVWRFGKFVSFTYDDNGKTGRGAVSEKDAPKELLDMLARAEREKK

T5: Sac7d V26A/M29A (Sulfolobus acidocaldarius, UniProt P13123 1-66, V26A;M29A)
T5 sequence: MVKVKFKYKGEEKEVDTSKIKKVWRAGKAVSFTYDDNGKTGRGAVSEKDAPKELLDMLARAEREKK


Experiments:
Test in all cases: X-ray crystallography
Sac7d M29F [1] = molecular target: T1, Sac7d M29F
Sac7d M29A = molecular target: T2, Sac7d M29A
Sac7d V26A = molecular target: T3, Sac7d V26A
Sac7d V26F/M29F = molecular target: T4, Sac7d V26F/M29F
Sac7d V26A/M29A [2] = molecular target: T5, Sac7d V26A/M29A
Sac7d V26A/M29A [3] = molecular target: T5, Sac7d V26A/M29A; remark: listed apart in the source
Sac7d M29F [4] = molecular target: T1, Sac7d M29F; remark: listed apart in the source
Sac7d V26A/M29A [5] = molecular target: T5, Sac7d V26A/M29A; remark: listed apart in the source

| Binder | binding result (Sac7d M29A) | binding result (Sac7d V26A) | binding result (Sac7d M29F [4]) | further results |
| --- | --- | --- | --- | --- |
| GCGATCGC duplex (dsDNA) DNA 1: GCGATCGC DNA 2: GCGATCGC | binds | binds |  | binding result (Sac7d M29F [1]): binds; binding result (Sac7d V26F/M29F): binds; binding result (Sac7d V26A/M29A [2]): binds |
| GCGAUbrCGC duplex (dsDNA, DNA with bromo-dU at position 5 of each strand) DNA 1: GCGAUCGC DNA 2: GCGAUCGC |  |  | binds | binding result (Sac7d V26A/M29A [3]): binds |
| GTAATTAC duplex (dsDNA) DNA 1: GTAATTAC DNA 2: GTAATTAC | binds | binds | binds |  |
| GCGATiCGC duplex (dsDNA, DNA with iodo derivative at position 5 (printed Ti; presumably iodo-dU)) DNA 1: GCGAUCGC DNA 2: GCGAUCGC |  |  |  | binding result (Sac7d V26A/M29A [5]): binds |
